In publication PMC11098746 (2024) one finds binding score data, which are given here for four molecules.

Assay in all cases: AVEXIS screen signal:noise (double-corrected)
For assay [1], the target named is T1, ADP360.
T1 chain: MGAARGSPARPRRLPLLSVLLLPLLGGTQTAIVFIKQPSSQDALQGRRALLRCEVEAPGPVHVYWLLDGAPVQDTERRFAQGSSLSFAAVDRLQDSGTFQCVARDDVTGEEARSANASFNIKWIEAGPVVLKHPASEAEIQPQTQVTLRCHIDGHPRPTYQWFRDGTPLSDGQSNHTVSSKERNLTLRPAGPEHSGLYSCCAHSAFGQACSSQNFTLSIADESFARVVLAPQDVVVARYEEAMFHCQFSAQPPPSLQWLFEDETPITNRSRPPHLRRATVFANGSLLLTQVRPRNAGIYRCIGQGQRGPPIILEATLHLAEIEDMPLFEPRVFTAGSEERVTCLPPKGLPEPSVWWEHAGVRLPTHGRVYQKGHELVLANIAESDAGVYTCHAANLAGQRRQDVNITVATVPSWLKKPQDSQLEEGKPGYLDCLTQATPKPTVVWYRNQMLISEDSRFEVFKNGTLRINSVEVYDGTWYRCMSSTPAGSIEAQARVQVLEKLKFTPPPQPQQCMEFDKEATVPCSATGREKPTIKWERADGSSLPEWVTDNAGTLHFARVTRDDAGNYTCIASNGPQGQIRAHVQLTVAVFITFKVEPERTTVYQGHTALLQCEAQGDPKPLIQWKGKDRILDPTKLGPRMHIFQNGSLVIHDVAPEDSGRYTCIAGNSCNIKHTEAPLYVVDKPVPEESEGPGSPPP

The target in assay [2] is T2, ADP101.
T2 chain: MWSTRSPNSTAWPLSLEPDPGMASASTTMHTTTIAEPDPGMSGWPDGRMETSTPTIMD

The target in assay [3] is T3, ADP103.
T3 chain: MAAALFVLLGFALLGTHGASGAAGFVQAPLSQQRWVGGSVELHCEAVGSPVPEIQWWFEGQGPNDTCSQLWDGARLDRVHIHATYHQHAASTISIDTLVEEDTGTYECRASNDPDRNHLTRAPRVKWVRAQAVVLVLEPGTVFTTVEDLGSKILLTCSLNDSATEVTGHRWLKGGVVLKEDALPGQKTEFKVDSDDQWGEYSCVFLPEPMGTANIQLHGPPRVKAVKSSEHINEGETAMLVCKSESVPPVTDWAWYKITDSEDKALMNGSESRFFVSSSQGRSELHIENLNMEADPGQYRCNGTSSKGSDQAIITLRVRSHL

Assay [4] deals with T4, ADP285.
T4 chain: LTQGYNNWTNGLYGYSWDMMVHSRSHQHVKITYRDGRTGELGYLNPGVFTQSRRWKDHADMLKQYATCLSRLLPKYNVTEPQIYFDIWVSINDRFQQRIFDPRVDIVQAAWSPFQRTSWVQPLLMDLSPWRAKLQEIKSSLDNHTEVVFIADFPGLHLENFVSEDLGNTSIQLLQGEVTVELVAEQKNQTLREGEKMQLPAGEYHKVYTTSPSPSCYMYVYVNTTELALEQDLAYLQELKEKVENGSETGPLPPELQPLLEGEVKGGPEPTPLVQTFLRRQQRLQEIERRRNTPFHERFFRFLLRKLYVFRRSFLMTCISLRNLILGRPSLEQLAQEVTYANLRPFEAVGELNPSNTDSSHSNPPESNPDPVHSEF

For assay [5], the target named is T5, ADP353.
T5 chain: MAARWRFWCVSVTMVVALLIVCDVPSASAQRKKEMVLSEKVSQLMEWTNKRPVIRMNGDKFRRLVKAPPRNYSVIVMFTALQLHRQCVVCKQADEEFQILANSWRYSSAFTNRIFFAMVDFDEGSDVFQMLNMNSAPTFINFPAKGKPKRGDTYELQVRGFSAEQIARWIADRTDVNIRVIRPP

In assay [6] the target is T6, ADP325.
T6 chain: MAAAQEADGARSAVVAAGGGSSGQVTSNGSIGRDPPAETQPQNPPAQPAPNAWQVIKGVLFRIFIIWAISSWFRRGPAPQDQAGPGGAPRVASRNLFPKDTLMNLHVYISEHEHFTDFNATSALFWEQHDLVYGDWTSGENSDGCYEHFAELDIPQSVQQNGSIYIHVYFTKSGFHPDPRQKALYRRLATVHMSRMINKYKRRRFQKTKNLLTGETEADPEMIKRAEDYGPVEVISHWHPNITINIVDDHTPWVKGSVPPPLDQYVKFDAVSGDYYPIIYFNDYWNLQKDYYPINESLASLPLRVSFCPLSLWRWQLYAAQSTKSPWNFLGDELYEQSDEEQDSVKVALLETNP

Assay [7] addresses T7, ADP267.
T7 chain: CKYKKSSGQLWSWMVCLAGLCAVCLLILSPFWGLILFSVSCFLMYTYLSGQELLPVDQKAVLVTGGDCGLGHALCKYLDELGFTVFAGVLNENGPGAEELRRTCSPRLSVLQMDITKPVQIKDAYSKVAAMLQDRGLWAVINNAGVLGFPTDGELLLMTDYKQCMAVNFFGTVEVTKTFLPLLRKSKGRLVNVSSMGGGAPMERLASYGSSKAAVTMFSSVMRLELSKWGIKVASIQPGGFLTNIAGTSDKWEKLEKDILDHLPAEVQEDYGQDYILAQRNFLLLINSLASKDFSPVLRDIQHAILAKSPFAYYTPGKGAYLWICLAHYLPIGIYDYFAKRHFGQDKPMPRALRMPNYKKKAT

The target of assay [8] is T8, ADP298.
T8 chain: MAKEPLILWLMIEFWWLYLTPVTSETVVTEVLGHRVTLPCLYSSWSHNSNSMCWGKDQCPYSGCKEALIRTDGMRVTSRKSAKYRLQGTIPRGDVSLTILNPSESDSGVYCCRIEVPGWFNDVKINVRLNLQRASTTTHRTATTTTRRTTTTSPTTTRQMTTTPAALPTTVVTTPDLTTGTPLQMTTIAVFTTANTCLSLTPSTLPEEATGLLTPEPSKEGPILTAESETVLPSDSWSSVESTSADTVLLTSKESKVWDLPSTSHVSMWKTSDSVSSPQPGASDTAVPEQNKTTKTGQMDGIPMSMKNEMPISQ

B1: ADP70 (protein)
chain: FENAIKKTKNQENNLALLPIKSTEEEKDDIKNGKDIKKEIDNDKENIKTNNAKDHSTYIKSYLNTNVNDGLKYLFIPSHNSFIKKYSVFNQINDGMLLNEKNDVKNNEDYKNVDYKNVNFLQYHFKELSNYNIANSIDILQEKEGHLDFVIIPHYTFLDYYKHLSYNSIYHKSSTYGKCIAVDAFIKKINEAYDKVKSKCNDIKNDLIATIKKLEHPYDINNKNDDSYRYDISEEIDDKSEETDDETEEVEDSIQDTDSNHAPSNKKKNDLMNRAFKKMMDEYNTKKKKLIKCIKNHENDFNKICMDMKNYGTNLFEQLSCYNNNFCNTNGIRYHYDEYIHKLILSVKSKNLNKDLSDMTNILQQSELLLTNLNKKMGSYIYIDTIKFIHKEMKHIFNRIEYHTKIINDKTKIIQDKIKLNIWRTFQKDELLKRILDMSNEYSLFITSDHLRQMLYNTFYSKEKHLNNIFHHLIYVLQMKFNDVPIKMEYFQTYKKNKPLTQ
modifications: bait human Fc-tagged dimer; N-glycosylation sequons mutated in Plasmodium baits
Consider B1, for which the binding score in assay [1] came to 6.35; in assay [2], 6.6; in assay [3] it was 4530; in assay [4] it was 7.62.

B2: ADP198 (protein)
chain: ENVDTFKCNYAKKKKNGHHIKRHITNDEEKKKEYSFLMLGKENEEENKENKENNQNVNKDNNDNNNNEKKNEEQNHNNEKKQEEVINNNNNNVENKKEEENHNNDKKTDEQNHVNEKKQEGENNKHKKDDTIPPEKKINKENLLEYGTHDKEGHFIPSYKTLTDEILSTNNAMEKASSFLKIACSHVMKLIEFIPESKLSSQYIKVDNKNIYLKDIAVECQNIYFNLEKFSMTLIVFNSKINKFIYSQEK
modifications: bait human Fc-tagged dimer; N-glycosylation sequons mutated in Plasmodium baits
Turning to B2, the binding score is 21.4 in assay [5] and 5.51 in assay [3].

B3: ADP222 (protein)
chain: NVVAPKSAEAVHTLTAKLDTENKAHQKYIDIINGVFSENMENFVFSITTSNGFTCSINKLDVIFDNKVTGMQKVFSDENVQYIKEASLEFKNNLLEYMKGVMPSENDFSNVRKEFQKVCVKYFSELRRKFFQIYRDPNNKNQNEDNVDNHMNIEEISQEFFSGFNPFGTMKIRKEQNPDLSQKDSLILNENNNDALTSADQKNNNMVPMENRAFSYSQQSSHVVSFDGHDEHVEQQEQHSGDNTQEDKDQLMDLPFNKDKVFSTFLKNVALLIEGNCAEAQQQAQEQTQEQTEEQEEEQNEKEIESDKQVQKDGEQKENDVQKKQKANAFTIQFSSSLSRKHISTTCNAASGNVFLRKGNKPFEHFNSPNFENMMKGVFGIIQNPFENGQPTFPFFKNINSISGIGNVDIPKNFMNDFLNNGNDQNTPISS
modifications: bait human Fc-tagged dimer; N-glycosylation sequons mutated in Plasmodium baits
B3 yielded a binding score in assay [6] of 6.14.

B4: ADP397 (protein)
chain: YLSSENQKKTIATVHNNARTNTLKKNNANNNNANDIFGLSPSEVPNLIDDEEEYEILEGVKNNADLTRSTNIDHPSPSSTMIDLDNIITEISKLKKKKLKKEMNNKLEQQTNQNNNAIHHNNENEINTFTQNIKTNSNELKNQDSSNSLISTNSNTMDELLLYSTNSEDNLDISFGELQLYENSDEDTSDYEYVNEDYSVNHIFSNDAEESFNILEDVENIALSSSNRYQYSPIGPYKKKHTKVFENFKMTRNYDEFLKLYNLKDSSDNQEEYYELLAGEPFKLNSYYYRDVKYENVKKYIFKEIYDNIQNIATENKIIVSKKEELFFYFIKSLLKNNFICLSYEEEENLLSESKLLLEAMISKKIQ
modifications: bait human Fc-tagged dimer; N-glycosylation sequons mutated in Plasmodium baits
On to B4, for which the binding score in assay [7] was 21.9; in assay [8], 7.9.
